Patent publication US20140087995A1 (published 2014)
Numbered stars: 1 amine (or outer) side, 2 acyl side, 3 side chain; on linkers, the order of the positions; unused ones are H or OH. Bridge positions count the residues as written; N and C are the ends. * marks the point of attachment. C20 diacid = O=C(O)CCCCCCCCCCCCCCCCCCC(=O)*; γGlu = O=C(O)[C@H](CCC(=O)[*:2])N[*:1]; AEEA = NCCOCCOCC(=O)O

Columns and labels:
[1] = target: T1, human amylin receptor (amylin 3(a) receptor: human calcitonin receptor with RAMP-3) (human, UniProt P30988 25-474; O60896 24-148, limits assumed); assay: SPA competition binding on membranes of BHK cells with human calcitonin receptor + RAMP-3; displacement of 125I-rat amylin (Assay V)
T1 construct: whole, on cells; Whole cells in the luciferase assay (Assay II a); also called hAmylin-R; hAmylinR
T1 sequence (looked up) 1: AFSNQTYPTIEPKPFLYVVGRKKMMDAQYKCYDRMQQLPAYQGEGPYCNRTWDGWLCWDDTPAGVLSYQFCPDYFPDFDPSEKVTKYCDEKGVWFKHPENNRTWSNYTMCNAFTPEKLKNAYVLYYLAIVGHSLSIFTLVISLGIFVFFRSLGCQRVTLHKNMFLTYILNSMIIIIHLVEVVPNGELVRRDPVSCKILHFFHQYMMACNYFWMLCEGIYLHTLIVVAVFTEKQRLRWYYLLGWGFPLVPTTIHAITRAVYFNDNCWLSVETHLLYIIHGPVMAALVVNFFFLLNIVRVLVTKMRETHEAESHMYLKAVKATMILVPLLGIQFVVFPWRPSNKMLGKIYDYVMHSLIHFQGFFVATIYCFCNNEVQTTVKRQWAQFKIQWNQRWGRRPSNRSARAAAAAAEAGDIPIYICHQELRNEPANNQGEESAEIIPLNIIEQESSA
T1 sequence (looked up) 2: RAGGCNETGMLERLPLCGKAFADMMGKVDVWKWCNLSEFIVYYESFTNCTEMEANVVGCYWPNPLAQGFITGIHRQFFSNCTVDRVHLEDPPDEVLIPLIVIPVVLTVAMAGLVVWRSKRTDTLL
Experimental: The binding assay was performed using scintillation proximity assay (SPA) beads (RPNQ0001) from PerkinElmer and cell membranes from the Amylin 3(a)/CRE-luc cells (as described in Assay (II)) were used. Membranes were prepared in the following way; the cells were rinsed with PBS and incubated with Versene for approximately 5 min before harvesting. The cells were flushed with PBS and the cell-suspension was centrifuged for 5 min at 1000 rpm. Cells were homogenized (ultrathurrax) in a buffer containing 20 mM Na-HEPES and 10 mM EDTA (pH 7.4) and centrifuged at 20.000 rpm for 15 min. The resulting pellet was resuspended, homogenized and centrifuged (20.000 rpm, 15 min) in a buffer containing 20 mM Na-HEPES and 0.1 mM EDTA (pH 7.4, buffer 2). The resulting pellet was resuspended in buffer 2 and protein concentration was measured (BCA protein Assay, Pierce). The homogenate was kept cold during the whole procedure. The membranes were kept at −80° C. until use. The assay was performed in a 384 well Optiplate (PerkinElmer) in a total volume of 40 ul. Membranes were mixed with SPA beads. Final concentration of membranes 35 ng/μL final and SPA beads was 0.05 mg/well. Test-compounds were dissolved in DMSO and further diluted in assay buffer (50 mM Hepes, pH 7.4, 1 mM CaCl2, 5 mM MgCl₂, 0.1% OA and 0.02% Tween20). […] The final mixture was incubated with shaking at 400 rpm for 120 min at 25° C. prior to centrifugation (1500 rpm, 10 min). Samples were analyzed on TopCounter™ (Packard). The IC₅₀ was calculated using (one site binding competition analysis) GraphPad Prism5 as a measure of receptor affinity.

[2] = target: T2, human calcitonin receptor (human, UniProt P30988 25-474); assay: cell-based or functional assay
T2 sequence (looked up): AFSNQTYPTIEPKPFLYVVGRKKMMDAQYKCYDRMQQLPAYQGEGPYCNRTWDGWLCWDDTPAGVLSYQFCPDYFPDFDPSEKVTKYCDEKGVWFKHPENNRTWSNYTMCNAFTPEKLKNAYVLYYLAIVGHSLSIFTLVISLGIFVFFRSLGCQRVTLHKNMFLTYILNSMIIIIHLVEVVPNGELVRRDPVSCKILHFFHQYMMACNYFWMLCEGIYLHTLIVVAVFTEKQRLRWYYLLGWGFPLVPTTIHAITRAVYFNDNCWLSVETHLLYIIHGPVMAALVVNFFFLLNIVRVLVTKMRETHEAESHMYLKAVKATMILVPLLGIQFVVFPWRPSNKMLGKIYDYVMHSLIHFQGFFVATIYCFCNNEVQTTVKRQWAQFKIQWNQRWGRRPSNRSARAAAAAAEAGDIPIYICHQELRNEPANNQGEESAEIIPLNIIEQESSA

B1: N^α1-[2-[2-[2-[[2-[2-[2-[[(4S)-4-carboxy-4-(19-carboxynonadecanoylamino)butanoyl]amino]ethoxy]ethoxy]acetyl]amino]ethoxy]ethoxy]acetyl]-[Glu14,Arg17,Pro21,Pro27 … (peptide)
peptide: {C20 diacid-γGlu-AEEA-AEEA}-KCNTATCATQRLAEFLRHSSPNFGAIPSSTNVGSNTP-NH2
modifications: disulfide 2-7
SMILES: CC[C@H](C)[C@H](NC(=O)[C@H](C)NC(=O)CNC(=O)[C@H](Cc1ccccc1)NC(=O)[C@H](CC(N)=O)NC(=O)[C@@H]1CCCN1C(=O)[C@H](CO)NC(=O)[C@H](CO)NC(=O)[C@H](Cc1c[nH]cn1)NC(=O)[C@H](CCCNC(=N)N)NC(=O)[C@H](CC(C)C)NC(=O)[C@H](Cc1ccccc1)NC(=O)[C@H](CCC(=O)O)NC(=O)[C@H](C)NC(=O)[C@H](CC(C)C)NC(=O)[C@H](CCCNC(=N)N)NC(=O)[C@H](CCC(N)=O)NC(=O)[C@@H](NC(=O)[C@H](C)NC(=O)[C@@H]1CSSC[C@H](NC(=O)[C@H](CCCCN)NC(=O)COCCOCCNC(=O)COCCOCCNC(=O)CC[C@H](NC(=O)CCCCCCCCCCCCCCCCCCC(=O)O)C(=O)O)C(=O)N[C@@H](CC(N)=O)C(=O)N[C@@H]([C@@H](C)O)C(=O)N[C@@H](C)C(=O)N[C@@H]([C@@H](C)O)C(=O)N1)[C@@H](C)O)C(=O)N1CCC[C@H]1C(=O)N[C@@H](CO)C(=O)N[C@@H](CO)C(=O)N[C@H](C(=O)N[C@@H](CC(N)=O)C(=O)N[C@H](C(=O)NCC(=O)N[C@@H](CO)C(=O)N[C@@H](CC(N)=O)C(=O)N[C@H](C(=O)N1CCC[C@H]1C(N)=O)[C@@H](C)O)C(C)C)[C@@H](C)O
notes: also called compound 20
IC50 [1]: 0.217 nM | Ratio hCT/hAmylin funct. [2]: 3.6 ratio

B2: N^α1-[(4S)-4-carboxy-4-(19-carboxynonadecanoylamino)butanoyl]-[Glu14,Arg17,Pro21,Pro27,Asp35,Pro37]-h-amylin (peptide)
peptide: {C20 diacid-γGlu}-KCNTATCATQRLAEFLRHSSPNFGAIPSSTNVGSDTP-NH2
modifications: disulfide 2-7
SMILES: CC[C@H](C)[C@H](NC(=O)[C@H](C)NC(=O)CNC(=O)[C@H](Cc1ccccc1)NC(=O)[C@H](CC(N)=O)NC(=O)[C@@H]1CCCN1C(=O)[C@H](CO)NC(=O)[C@H](CO)NC(=O)[C@H](Cc1c[nH]cn1)NC(=O)[C@H](CCCNC(=N)N)NC(=O)[C@H](CC(C)C)NC(=O)[C@H](Cc1ccccc1)NC(=O)[C@H](CCC(=O)O)NC(=O)[C@H](C)NC(=O)[C@H](CC(C)C)NC(=O)[C@H](CCCNC(=N)N)NC(=O)[C@H](CCC(N)=O)NC(=O)[C@@H](NC(=O)[C@H](C)NC(=O)[C@@H]1CSSC[C@H](NC(=O)[C@H](CCCCN)NC(=O)CC[C@H](NC(=O)CCCCCCCCCCCCCCCCCCC(=O)O)C(=O)O)C(=O)N[C@@H](CC(N)=O)C(=O)N[C@@H]([C@@H](C)O)C(=O)N[C@@H](C)C(=O)N[C@@H]([C@@H](C)O)C(=O)N1)[C@@H](C)O)C(=O)N1CCC[C@H]1C(=O)N[C@@H](CO)C(=O)N[C@@H](CO)C(=O)N[C@H](C(=O)N[C@@H](CC(N)=O)C(=O)N[C@H](C(=O)NCC(=O)N[C@@H](CO)C(=O)N[C@@H](CC(=O)O)C(=O)N[C@H](C(=O)N1CCC[C@H]1C(N)=O)[C@@H](C)O)C(C)C)[C@@H](C)O
notes: also called compound 11
IC50 [1]: 0.105 nM | Ratio hCT/hAmylin funct. [2]: 0.9 ratio
